This passage reports increase of co-precipitated gephyrin-FLAG against NL2HA results from PMC4197815.

The target of the assay is NL2HA-S714A (human) (UniProt Q8NFZ4). Nature of the assay: co-IP.
UniProt Q8NFZ4, sequence (Q8NFZ4 15-835, stated change not applied): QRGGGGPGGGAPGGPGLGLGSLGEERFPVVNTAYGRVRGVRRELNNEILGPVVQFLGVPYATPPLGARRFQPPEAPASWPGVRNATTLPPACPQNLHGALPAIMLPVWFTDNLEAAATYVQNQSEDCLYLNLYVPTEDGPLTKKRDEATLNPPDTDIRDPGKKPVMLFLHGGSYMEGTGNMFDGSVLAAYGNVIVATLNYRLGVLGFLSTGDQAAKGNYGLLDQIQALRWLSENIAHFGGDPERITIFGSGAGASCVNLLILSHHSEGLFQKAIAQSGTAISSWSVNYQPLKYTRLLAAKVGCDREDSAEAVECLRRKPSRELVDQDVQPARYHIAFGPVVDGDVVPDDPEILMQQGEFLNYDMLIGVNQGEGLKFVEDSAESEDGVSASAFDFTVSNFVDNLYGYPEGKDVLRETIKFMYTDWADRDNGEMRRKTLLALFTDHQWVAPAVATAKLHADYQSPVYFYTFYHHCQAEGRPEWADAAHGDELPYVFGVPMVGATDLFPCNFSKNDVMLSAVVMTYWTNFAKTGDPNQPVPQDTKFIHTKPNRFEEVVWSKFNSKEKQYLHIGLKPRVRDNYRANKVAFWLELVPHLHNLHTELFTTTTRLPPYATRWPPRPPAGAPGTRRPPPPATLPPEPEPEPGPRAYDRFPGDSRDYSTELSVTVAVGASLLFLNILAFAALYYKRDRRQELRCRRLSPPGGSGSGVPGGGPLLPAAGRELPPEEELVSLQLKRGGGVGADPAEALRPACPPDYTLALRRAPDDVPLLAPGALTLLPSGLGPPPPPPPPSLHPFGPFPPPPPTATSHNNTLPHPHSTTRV

B1: gephyrin-FLAG (natural protein)
chain: MATEGMILTNHDHQIRVGVLTVSDSCFRNLAEDRSGINLKDLVQDPSLLGGTISAYKIVPDEIEEIKETLIDWCDEKELNLILTTGGTGFAPRDVTPEATKEVIEREAPGMALAMLMGSLNVTPLGMLSRPVCGIRGKTLIINLPGSKKGSQECFQFILPALPHAIDLLRDAIVKVKEVHDELEDLPSPPPPLSPPPTTSPHKQTEDKGVQCEEEEEEKKDSGVASTEDSSSSHITAAALAAKIPDSIISRGVQVLPRDTASLSTTPSESPRAQATSRLSTASCPTPKVQSRCSSKENILRASHSAVDITKVARRHRMSPFPLTSMDKAFITVLEMTPVLGTEIINYRDGMGRVLAQDVYAKDNLPPFPASVKDGYAVRAADGPGDRFIIGESQAGEQPTQTVMPGQVMRVTTGAPIPCGADAVVQVEDTELIRESDDGTEELEVRILVQARPGQDIRPIGHDIKRGECVLAKGTHMGPSEIGLLATVGVTEVEVNKFPVVAVMSTGNELLNPEDDLLPGKIRDSNRSTLLATIQEHGYPTINLGIVGDNPDDLLNALNEGISRADVIITSGGVSMGEKDYLKQVLDIDLHAQIHFGRVFMKPGLPTTFATLDIDGVRKIIFALPGNPVSAVVTCNLFVVPALRKMQGILDPRPTIIKARLSCDVKLDPRPEYHRCILTWHHQEPLPWAQSTGNQMSSRLMSMRSANGLLMLPPKTEQYVELHKGEVVDVMVIGRL
Molecule B1 came in with an increase of co-precipitated gephyrin-FLAG against NL2HA of 140%.
